Variants at the floor of the assay were thinned out.
Columns and labels:
biotinyl-Phe-oxazolone = assay: self-aminoacylation, catalytic enhancement (BFO) (fold over background); higher = more active; k-Seq, kA / k0A0; sequences stand for … in GGGAAUGGAUCCACAUCUACGAAUUC…UUCACUGCAGACUUGACGAAGCUG
Method in brief: (§1)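 The uncatalyzed rate is the low-activity peak of a bimodal Gaussian fit, and catalytic enhancement is median kA divided by it. The kA values came from pseudo-first-order fits, with 1000 bootstraps, of per-sequence fraction reacted measured by streptavidin capture, triplicate qPCR and Illumina sequencing. Mutagenized RNA pools with a 21-nt variable region (0.43 μM) were reacted with each biotinyl-aminoacyl-oxazolone at 2–1250 μM in 50 μL HEPES/NaCl/KCl/MgCl2/CaCl2 buffer with 5% acetonitrile, pH 6.9–7.0, for 90 minutes at room temperature.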

biotinyl-Leu-oxazolone = assay: self-aminoacylation, catalytic enhancement (BLO) (fold over background); higher = more active; k-Seq, kA / k0A0; sequences stand for … in GGGAAUGGAUCCACAUCUACGAAUUC…UUCACUGCAGACUUGACGAAGCUG
Method in brief: as §1

biotinyl-Trp-oxazolone = assay: self-aminoacylation, catalytic enhancement (BWO) (fold over background); higher = more active; k-Seq, kA / k0A0; sequences stand for … in GGGAAUGGAUCCACAUCUACGAAUUC…UUCACUGCAGACUUGACGAAGCUG
Method in brief: as §1

biotinyl-Ile-oxazolone = assay: self-aminoacylation, catalytic enhancement (BIO) (fold over background); higher = more active; k-Seq, kA / k0A0; sequences stand for … in GGGAAUGGAUCCACAUCUACGAAUUC…UUCACUGCAGACUUGACGAAGCUG
Method in brief: as §1

biotinyl-Met-oxazolone = assay: self-aminoacylation, catalytic enhancement (BMO) (fold over background); higher = more active; k-Seq, kA / k0A0; sequences stand for … in GGGAAUGGAUCCACAUCUACGAAUUC…UUCACUGCAGACUUGACGAAGCUG
Method in brief: as §1

biotinyl-Val-oxazolone = assay: self-aminoacylation, catalytic enhancement (BVO) (fold over background); higher = more active; k-Seq, kA / k0A0; sequences stand for … in GGGAAUGGAUCCACAUCUACGAAUUC…UUCACUGCAGACUUGACGAAGCUG
Method in brief: as §1

Sequence	self-aminoacylation (biotinyl-Phe-oxazolone)	self-aminoacylation (biotinyl-Leu-oxazolone)	self-aminoacylation (biotinyl-Trp-oxazolone)	self-aminoacylation (biotinyl-Ile-oxazolone)	self-aminoacylation (biotinyl-Met-oxazolone)	self-aminoacylation (biotinyl-Val-oxazolone)
GCACACUUCAACCAAUCGGUC [Fam1B.1 aminoacylation ribozyme variant]	60.5	2.93	44	2.39	2.02	2.43
GCACACUUCAAGCAAGCGGUC [Fam1B.1 aminoacylation ribozyme variant]	3.91	2.06	3.01	2.42	1.93	2.54
GCACACUUCAAGCAAUCGCUC [Fam1B.1 aminoacylation ribozyme variant]	12.2	2.82	4.76	3.18	2.84	2.92
GCACACUUCAAGCAAUCUGUC [Fam1B.1 aminoacylation ribozyme variant]	1.22	0.708	0.902	0.87	0.605	0.867
GCACACUUCAAGCAAUUGGUC [Fam1B.1 aminoacylation ribozyme variant]	2.06	1.3	1.94	1.47	1.45	1.22
GCACACUUCAAGCUAUCGGUC [Fam1B.1 aminoacylation ribozyme variant]	1.47	1.35	1.81	1.48	1.36	1.48
GCACACUUGAAGCAAUCGGUC [Fam1B.1 aminoacylation ribozyme variant]	1.46	1.29	1.99	1.45	1.11	1.4
GCACAGUUCAAGCAAUCGGUC [Fam1B.1 aminoacylation ribozyme variant]	4.42	2.04	4.48	2.44	1.98	2.07
GCACGCUUCAAGCAAUCGGUC [Fam1B.1 aminoacylation ribozyme variant]	120	3.62	60.1	2.55	2.62	2.74
GCAGACUUCAAGCAAUCGGUC [Fam1B.1 aminoacylation ribozyme variant]	119	4.28	49.8	3.19	2.82	2.67
GCAUACUUCAAGCAAUCGGUC [Fam1B.1 aminoacylation ribozyme variant]	19.8	2.19	18	2.35	2.03	2.01
GCUCACCUAGGUCAUCGGGUG [Fam2.2 aminoacylation ribozyme variant]	35.1	6.79	9.1	5.39	6.13	5.77
GGGUUUGCUAAUAGUCGCAAG [Fam3.1 aminoacylation ribozyme variant]	12.3	2.45	6.82	2.32	1.89	2.01
GUAACCCUGGUCAUCGAGUGA [Fam2.1 aminoacylation ribozyme variant]	75.7	15.6	15.1	7.01	15.2	6.13
GUACUUCAAACAAUCCGUCUG [Fam1A.1 aminoacylation ribozyme variant]	2.63	1.45	2.16	1.49	1.02	1.24
GUACUUCAAACAAUCGGUCUA [Fam1A.1 aminoacylation ribozyme variant]	4.84	0.933	3.66	1.17	0.943	0.997
GUACUUCAAACAAUCGGUUUG [Fam1A.1 aminoacylation ribozyme variant]	40.2	1.89	27.8	1.85	1.66	1.59
GUACUUCAAACAGUCGGUCUG [Fam1A.1 aminoacylation ribozyme variant]	1.14	1.3	1.5	1.32	1.41	1.22
GUUACCCAGGUCAUCGAGUGA [Fam2.1 aminoacylation ribozyme variant]	22.2	6.2	7.86	4.24	6.63	3.78
GUUACCCUGGUAAUCGAGUGA [Fam2.1 aminoacylation ribozyme variant]	58.5	10.5	13.9	4.93	10.7	4.77
GUUACCCUGGUCAUAGAGUGA [Fam2.1 aminoacylation ribozyme variant]	85.2	12.6	14.1	5.89	11.1	5.04
GUUACCCUGGUCAUCCAGUGA [Fam2.1 aminoacylation ribozyme variant]	52.7	7.84	9.02	4.66	7.39	4.7
GUUACCCUGGUCAUCGAAUGA [Fam2.1 aminoacylation ribozyme variant]	1.45	1.84	2.55	1.58	1.52	1.81
GUUACCCUGGUCAUCGACUGA [Fam2.1 aminoacylation ribozyme variant]	0.937	1.45	1.01	1.2	1.4	1.21
GUUACCCUGGUCAUCGAGUGU [Fam2.1 aminoacylation ribozyme variant]	825	114	102	31.5	111	37.1
GUUACCCUGGUCAUCGUGUGA [Fam2.1 aminoacylation ribozyme variant]	30.3	4.75	6.06	2.6	4.3	3.08

Source: the supplement of paper PMC9233669
